From US20240270831A1

Key:
[1] = molecular target: purchased CTNI antigen (UniProt P19429); experiment: fluorescent chromatography card, sandwich; coated on T line; 3 ng/ml
[2] = molecular target: purchased CTNI antigen (UniProt P19429); experiment: fluorescent chromatography card, sandwich; coated on T line; 18 ng/ml
[3] = molecular target: purchased CTNI antigen (UniProt P19429); experiment: fluorescent chromatography card, sandwich; coated on T line; 0.7 ng/ml
[4] = molecular target: purchased CTNI antigen (UniProt P19429); experiment: fluorescent chromatography card, sandwich; coated on T line; 0.04 ng/ml
[5] = molecular target: purchased CTNI antigen (UniProt P19429); experiment: fluorescent chromatography card, sandwich; coated on T line; 0.08 ng/ml
[6] = molecular target: purchased CTNI antigen (UniProt P19429); experiment: fluorescent chromatography card, sandwich; coated on T line; 0.15 ng/ml
[7] = molecular target: purchased CTNI antigen (UniProt P19429); experiment: fluorescent chromatography card, sandwich; coated on T line; 10.5 ng/ml
[8] = molecular target: purchased CTNI antigen (UniProt P19429); experiment: fluorescent chromatography card, sandwich; coated on T line; 0 ng/ml (blank, no antigen)
[9] = molecular target: purchased CTNI antigen (UniProt P19429); experiment: fluorescent chromatography card, sandwich; coated on T line, other CTNI antibody on fluorescent microspheres; 50 ng/ml

Sequence of UniProt P19429 (P19429 2-210 limits assumed): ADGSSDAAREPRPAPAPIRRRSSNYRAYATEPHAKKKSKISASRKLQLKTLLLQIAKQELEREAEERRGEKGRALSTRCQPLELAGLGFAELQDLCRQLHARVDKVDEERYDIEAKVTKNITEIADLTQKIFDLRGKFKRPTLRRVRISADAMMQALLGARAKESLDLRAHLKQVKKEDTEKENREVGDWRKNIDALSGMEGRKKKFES

B1: Anti-cTnI-21C5 monoclonal antibody (antibody, from another filing, V domains shown)
VH: EVQLQQSGPELVKPGASVKMSCKASGYSFTLYVVHWVKQKPGQGLEWIGYIQPYLDGTRYNEKFKGKATLTVDKSSSTAFMELSSLTSEDSAVYYCARTGYGGYGLAWLAYWGQGTLVTVSA
VL: QAVVIQESALTTSPGETVTLTCRSSSGAATTSQYANWVQEKPDHLFTGLIGGSNNRAPGVPARFSGSLIGDKAALTITGAQTEDEAIYFCAIVYSNHWVFGGGTKLTVLG
fluorescence reading (name not given) [1]: 0.18 | fluorescence reading (name not given) [2]: 0.746 | fluorescence reading (name not given) [3]: 0.045 | fluorescence reading (name not given) [4]: 0.017 | fluorescence reading (name not given) [5]: 0.02 | fluorescence reading (name not given) [6]: 0.026 | fluorescence reading (name not given) [7]: 0.45 | fluorescence reading (name not given) [8]: 0.015 | fluorescence reading (name not given) [9]: 2.17
